We go through 1 molecule from PMC12052392 (PLOS Pathogens, 2025).

This assay deals with SARS-CoV-2 S2 (T1076-Q1208) antigen, trimeric S2 fusion-core-based antigen (SARS-CoV-2 prototype (MN908947.3), UniProt P0DTC2, biotin (Biotinylation Kit)). Briefly: BLI. As to conditions: both partners purified.

B1: anti-SH neutralizing antibody CV3-25 (antibody, V domains shown)
VH: EVQLVESGAEVKKPGESLKISCKGSGYTFTRYWIGWVRQMPGKGLEWMGIIYPGDSDTRYSPSFQGHVTISADKSISTAYLQWNSLKASDTAMYYCARLPQYCSNGVCQRWFDPWGQGTLVTVSS
VL: EIVLTQSPSSVSASVGDRVTITCRASQGISSWLAWYQQKPGKAPKLLIYAASSLQSGVPSRFSGSGSGTDFTLTISSLQPEDFATYYCQQGNSFPYTFGQGTNLEIK
As for B1, the binding result was “binds”.
